Measurements reported in publication PMC4589512 (Nature cell biology, 2015).

Molecular target: CGG-CC1 (human, UniProt Q13586 233-343)
Assay: SPR

Chain of CGG-CC1 (Q13586 233-343): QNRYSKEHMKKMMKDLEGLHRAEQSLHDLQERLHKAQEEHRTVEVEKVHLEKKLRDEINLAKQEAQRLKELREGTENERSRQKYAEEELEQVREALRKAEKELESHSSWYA

B1: STIMATE-CT (analyte of the SPR) (domain or fragment)
chain: DNFLMRKGKTKAKLEERGANQDSRNGSKVRYRRAASHEESESEILISADDEMEESDVEEDLRRLTPLKPVKKKKHRFGLPV
B1 gave a Kd of 8.9 ± 0.7 µM.
